One assay concerns the target Flag-hAPRIL (human). The assay is described as follows: SEC; Superdex S200 Increase HR 10/30, PBS 10 ug/ml BSA, 0.7 ml/min; proteins alone or Flag-ligand with a 20-fold mass excess of atacicept; fractions analysed by Western blot; complexes of fractions 10 and 11 concentrated and run again.
Assay [1] concerns the target endogenous BAFF (human serum) (human (endogenous in serum)). In words: SEC; 300 ul serum of an atacicept-treated SLE patient (pre-dose, 4 weeks of treatment, 12 weeks after treatment end) fractionated in PBS; BAFF ELISA and non-reducing anti-TACI Western blot of the fractions.

Turning to Flag-hAPRIL (ligand), the stoichiometry N with Flag-hAPRIL (human) was determined as 3. The substance endogenous BAFF (human serum) (ligand) had a stoichiometry N in assay [1] of 3.

What is called stoichiometry N is the number of molecules, sites or subunits per partner or assembly.

Source of the values: publication PMC9756848.
